Laboratory results reported in patent US20150004174A1.

Key:
[1] = target: cynomolgus monkey PCSK9, V5-6xHis tagged (cynomolgus monkey); test: BIAcore solution equilibrium binding assay, free PCSK9 measured on immobilized 21B12
[2] = target: cynomolgus monkey PCSK9, V5-6xHis tagged (cynomolgus monkey); test: BIAcore SPR, antibody amine-coupled to CM5 chip, PCSK9 as analyte, pH 7.4
[3] = target: cynomolgus monkey PCSK9, V5-6xHis tagged (cynomolgus monkey); test: KinExA solution equilibrium

Row | Kd [1] [nM] | Kd [2] [nM] | Kd [3] [nM] | Binder
1 | 0.011 | 0.36 |  | 21B12 human IgG4 (from hybridoma) (antibody, V domains shown) VH: QVQLVQSGAEVKKPGASVKVSCKASGYTLTSYGISWVRQAPGQGLEWMGWVSFYNGNTNYAQKLQGRGTMTTDPSTSTAYMELRSLRSDDTAVYYCARGYGMDVWGQGTTVTVSS VL: QSALTQPASVSGSPGQSITISCTGTSSDVGGYNSVSWYQQHPGKAPKLMIYEVSNRPSGVSNRFSGSKSGNTASLTISGLQAEDEADYYCNSYTSTSMVFGGGTKLTVLQ
2 |  | 0.87 | 0.016 | 16F12 human IgG4 (antibody, V domains shown) VH: QVHLVESGGGVVQPGRSLRLSCAASGFTFNSFGMHWVRQAPGKGLEWVALIWSDGSDEYYADSVKGRFTISRDNSKNTLYLQMNSLRAEDTAVYYCARAIAALYYYYGMDVWGQGTTVTVSS VL: QSVLTQPPSVSAAPGQKVTISCSGSSSNIGNNFVSWYQQLPGTAPKLLIYDYNKRPSGIPDRFSGSKSGTSATLGITGLQTGDEADYYCGTWDSSLSAYVFGTGTRVTVLQ
